Target: T1, recombinant full length Human Cdk6 (amino acids 1-326) with N-terminal His tag (Abcam ab84717) (human, UniProt Q00534 1-326)
T1 construct: range 1-326; Bought protein, coated on the ELISA plate at 1 ug/ml; also called Cdk6 protein; not shown: N-terminal His tag of the bought protein
Assay: ELISA, Cdk6 coated on plate, p15 variant at 0-10 uM, anti-GST primary and HRP secondary antibody, absorbance 450 nm

T1 sequence (Q00534 whole entry, the tested form may be a part): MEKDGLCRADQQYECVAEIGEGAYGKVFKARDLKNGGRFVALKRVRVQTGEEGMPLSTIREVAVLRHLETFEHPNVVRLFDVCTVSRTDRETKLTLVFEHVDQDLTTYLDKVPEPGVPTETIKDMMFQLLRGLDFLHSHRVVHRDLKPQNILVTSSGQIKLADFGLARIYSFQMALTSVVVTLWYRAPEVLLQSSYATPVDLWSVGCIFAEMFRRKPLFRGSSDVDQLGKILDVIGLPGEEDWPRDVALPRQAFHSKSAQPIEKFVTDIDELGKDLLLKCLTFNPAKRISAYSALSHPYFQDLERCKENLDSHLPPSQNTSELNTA

binding result: binds
B1: human p15 protein variant (SEQ ID NO: 2) (other)
chain: MREENKGMPSGGGSDEGLASAAARGLVEKVRQLLEAGADPNGVNRFGRRAIQVMMMGSARVAELLLKHGAEPNSADPATSTRPVHDAAREGFLDTLVVLHRAGARLDARDAWGRTPVDLAEERGHRDVAGYLRTATGD
notes: Expressed in E. coli from pET21b (NdeI/XhoI) and purified on a HisTrap column and by SEC; also called mt p15; p15INK4b variant
